From IntAct's records for PubMed 23892456 come the findings set out here.

B1: Homeobox protein NANOG (Mus musculus), Q80Z64 (parent)
chain: MSVGLPGPHSLPSSEEASNSGNASSMPAVFHPENYSCLQGSATEMLCTEAASPRPSSEDLPLQGSPDSSTSPKQKLSSPEADKGPEEEENKVLARKQKMRTVFSQAQLCALKDRFQKQKYLSLQQMQELSSILNLSYKQVKTWFQNQRMKCKRWQKNQWLKTSNGLIQKGSAPVEYPSIHCSYPQGYLVNASGSLSMWGSQTWTNPTWSSQTWTNPTWNNQTWTNPTWSSQAWTAQSWNGQPWNAAPLHNFGEDFLQPYVQLQQNFSASDLEVNLEATRESHAHFSTPQALELFLNYSVTPPGEI

In the experiment the parent is B1. Conditions: with sox2_mouse Sox2, P48432.
Chain of sox2_mouse Sox2, P48432 (P48432 whole entry): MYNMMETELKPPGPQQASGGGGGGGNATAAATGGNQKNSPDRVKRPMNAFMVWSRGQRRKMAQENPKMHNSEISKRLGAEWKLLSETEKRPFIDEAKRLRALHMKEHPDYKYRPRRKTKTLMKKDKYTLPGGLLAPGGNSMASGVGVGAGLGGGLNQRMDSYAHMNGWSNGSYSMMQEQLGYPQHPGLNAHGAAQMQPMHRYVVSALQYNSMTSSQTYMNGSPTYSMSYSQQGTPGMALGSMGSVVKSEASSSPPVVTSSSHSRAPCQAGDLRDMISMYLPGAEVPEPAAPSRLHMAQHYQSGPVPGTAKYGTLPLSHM
Consider W198A;W203A;W208A;W213A;W218A;W223A;W228A;W233A;W238A;W243A, for which the “effect of a mutation on the interaction” value is recorded as “disrupting interaction”.
